Results published in PMC4476568.
Values joined by “and” are separate entries in the source; they are usually repeats but may differ in a detail not shown here. Identical values can stand only once.

Target: EGFP-labeled nuclear transport factor 2 (NTF2) (human) (UniProt P61970)
Assay: fluorescence fluctuation spectroscopy brightness analysis (MSQ with z-scan FFS); living E. coli cells in agarose; two-photon excitation at 1000 nm, ~1 mW, focus at the geometric centre of the cell; MSQ-curve fit to Eqs 14 and 22; normalized brightness against EGFP in solution, corrected for cell geometry

Substance: EGFP-labeled nuclear transport factor 2 (NTF2) (from UniProt P61970 1-127) (natural protein; other documents disagree on this pair)
- stoichiometry N: 2.1 and 1.94
